Measurements published in patent US10052364B2, “Osteocalcin as a treatment for cognitive disorders” (THE TRUSTEES OF COLUMBIA UNIVERSITY IN THE CITY OF NEW YORK, priority 2013, dated 2018).
No end group written: not given here.

B1: leptin: adipocyte-derived hormone, positive control known to cross the BBB (protein, UniProt P41160 22-167, looked up)
Leptin: VPIQKVQDDTKTLIKTIVTRINDISHTQSVSAKQRVTGLDFIPGLHPILSLSKMDQTLAVYQQVLTSLPSQNVLQIANDLENLRDLLHLLAFSKSCSLPQTSGLQKPESLDGVLEASLYSTEVVALSRLQGSLQDILQQLDVSPEC

Tests used:
[1] = tested on: mouse primary hindbrain neurons (MPHN); assay: Calcium flux in primary hindbrain neurons; type: cell-based; conditions: MPHN treated with undercarboxylated or carboxylated osteocalcin
Description: For calcium imaging, primary hindbrain neurons seeded on 12 mm coverslips were allowed the appropriate time to form structural networks. These cultures were washed with HBSS and loaded with 2.5 μM FURA-2, AM calcium indicator for 45 minutes at room temperature, according to the manufacturer's protocol. Cells were then washed to remove excess indicator and incubated for 30 minutes to allow internalized esters to become de-esterified. 30 ng/ml of osteocalcin was prepared with the control buffer of 1×HBBS supplemented with 10 mM HEPES buffer and 2 mM CaCl2. Using a Zeiss microscope with a perfusion system, coverslips were first perfused with control and osteocalcin. After each stimulation, cells were depolarized with 50 mM KCl to determine the percentage of live cells being imaged. All treatments were recorded using two-photon laser scanning microscopy by Prairie Technologies and analyzed by Z axis profile plotting using ImageJ.
To determine if osteocalcin acts directly on neurons to modulate neurotransmitter synthesis, several types of assays were performed. First, brainstem and midbrain explants from WT and Gprc6a^−/− mice were generated. […] Third, to further confirm that osteocalcin signals in neurons of the hindbrain, calcium flux in MPHN treated with undercarboxylated or carboxylated osteocalcin (FIG. 3F) was measured. […]

[2] = Positive control for blood brain barrier crossing: subcutaneous leptin infusion in ob/ob mice, content measured in brain; type: in vivo, mouse; conditions: subcutaneous infusion 50 ng/hour, seven days, 3 month-old ob/ob mice
Description: FIG. 3. Osteocalcin binds to neurons in the brain. (A) Measurement of the total osteocalcin in 3 month-old Osteocalcin^−/− mice infused subcutaneously for 7 days with either uncarboxylated osteocalcin (300 ng/hour, right panel) or PBS (left panel). Osteocalcin levels were measured in bone, serum, and different parts of the brain (cortex, midbrain, hypothalamus, brainstem, and cerebellum). (B) Subcutaneous infusion of leptin ([…], right panel) or PBS (left panel) for 7 days in ob/ob mice. Leptin levels were measured in serum, cortex, midbrain, hypothalamus, brainstem, and cerebellum. […]
Osteocalcin^−/−, Gprc6a^−/−, Osteocalcin-mCherry, and Osteocalcin floxed mice have been previously described (Ducy et al., 1996, Nature 382:448-452; Oury et al., 2011, Cell 144:796-809). Mouse genotypes were determined by PCR. […] Leptin and osteocalcin content in sera and tissues were determined by ELISA.
To understand how this behavioral phenotype develops, whether osteocalcin crosses the blood brain barrier (BBB) was tested by installing pumps that subcutaneously delivered vehicle or uncarboxylated osteocalcin (50 ng/hour) in three-month-old Osteocalcin^−/− mice. […] Seven days later, osteocalcin and leptin content were measured in blood, bone, and in various parts of the brain in Osteocalcin−/− and ob/ob mice, respectively. […]

[3] = tested on: brainstem and midbrain explants from WT and Gprc6a-/- mice; assay: Gene expression (qPCR) in brainstem and midbrain explants; type: cell-based, mouse; conditions: leptin, WT or Gprc6a-/- brainstem explants
Description: For gene expression studies, RNA was isolated from primary neurons or tissue using TRIZOL® (Invitrogen). cDNA synthesis was performed following a standard protocol from Invitrogen and qPCR analyses were done using specific quantitative PCR primers from SABiosciences (www.sabiosciences.com/RT2PCR.php).
Brains were dissected and incubated for 30 minutes in ice cold oxygenated artificial cerebrospinal fluid (ACSF). Brains were then sliced at 500 μm at the midbrain, −1.55 to −2.35 mm from the bregma, and at the level of the brainstem, from −4.04 to −4.48 mm and from −4.60 to −5.20 mm from the bregma, to include the median and dorsal raphe, respectively. These slices were incubated in ACSF for 1 h, constantly oxygenated (95% 02 and 5% CO2) for 4 h, after which they were treated with either osteocalcin (10 ng/ml) or PBS for four hours. Expression of Tph2, TH, GAD1, GAD2, and Ddc was measured by qPCR.
To determine if osteocalcin acts directly on neurons to modulate neurotransmitter synthesis, several types of assays were performed. First, brainstem and midbrain explants from WT and Gprc6a^−/− mice were generated. Brains were sliced (500 μm) at the level of the median and dorsal raphe of the brainstem (from −4.04 to −4.48 mm and from −4.60 to −5.20 mm, respectively), so that they would be enriched in serotonin-producing neurons, as well as at the level of substantia nigrae and ventral tegmental areas (VTA) of the midbrain (from −1.55 to −2.35 mm and from −2.55 to −3.25 mm, respectively). Enrichment in serotoninergic and catecholaminergic neurons in these explants was verified by their high Tph2 and Th expression. While leptin, used here as a positive control, reduced, as it should, Tph2 expression in WT or Gprc6a^−/− brainstem explants, osteocalcin (3 ng/ml) increased expression of this gene 2.5 fold in both WT and Gprc6a^−/− explants. (FIG. 3D). Additionally, osteocalcin increased Th expression in midbrain explants and decreased Gad1 expression in both WT and in Gprc6a^−/− hindbrain explants (FIG. 3D). Second, the cultured WT and Gprc6a^−/− mouse primary hindbrain neurons (MPHN) were treated with osteocalcin (3 ng/ml). […] Third, to further confirm that osteocalcin signals in neurons of the hindbrain, calcium flux in MPHN treated with undercarboxylated or carboxylated osteocalcin (FIG. 3F) was measured. […] Moreover, osteocalcin inhibits the action potential frequency of the GABAergic interneurons of the hindbrain (FIG. 3H).

Molecule	calcium fluxes in primary hindbrain neurons [1]	leptin content in parts of the brain [2]	Tph2 expression in brainstem explants (positive control) [3]
carboxylated osteocalcin: Carboxylated (Gla) form of osteocalcin used as comparison in the calcium flux assay (YLGASVPSPDPLEPTREQCELNPACDELSDQYGLKTAYKRIYGITI; ends and bridges not checked; also: gamma-carboxylated (Gla) form, places not given here; UniProt P86546 50-95, looked up) [reference compound]	not		
B1		could be detected in the brainstem and hypothalamus	reduced
